Assay results reported in article PMC9482650, “Quantitative fragmentomics allow affinity mapping of interactomes” (Nature Communications, 2022).

Key:
Assay in all cases: holdup assay
Design in all cases: key: below the threshold = too weak to quantify, mostly under pKd 3.1 to 4
[1] = molecular target: T1, APBA2_1, Q99767
T1 sequence (Q99767 563-664, limits assumed, looked up): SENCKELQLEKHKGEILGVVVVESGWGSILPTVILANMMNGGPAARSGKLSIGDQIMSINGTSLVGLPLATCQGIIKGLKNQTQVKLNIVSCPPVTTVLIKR

[2] = molecular target: GOPC, Q9HD26
[3] = molecular target: GORASP1, Q9BQQ3
[4] = molecular target: T2, GRIP1_5, Q9Y3R0
T2 sequence (Q9Y3R0 568-668, limits assumed, looked up): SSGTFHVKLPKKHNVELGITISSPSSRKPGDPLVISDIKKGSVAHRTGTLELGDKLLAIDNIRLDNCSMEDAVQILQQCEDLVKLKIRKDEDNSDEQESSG

[5] = molecular target: IL16_3, Q14005
[6] = molecular target: LNX1_1, Q8TBB1
[7] = molecular target: LNX1_3, Q8TBB1
[8] = molecular target: T3, LNX2_2, Q8N448
T3 sequence (Q8N448 334-432, limits assumed, looked up): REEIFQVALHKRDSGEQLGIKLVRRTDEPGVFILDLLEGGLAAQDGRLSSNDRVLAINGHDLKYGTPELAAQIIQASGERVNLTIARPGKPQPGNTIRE

[9] = molecular target: T4, LNX2_3, Q8N448
T4 sequence (Q8N448 463-564, limits assumed, looked up): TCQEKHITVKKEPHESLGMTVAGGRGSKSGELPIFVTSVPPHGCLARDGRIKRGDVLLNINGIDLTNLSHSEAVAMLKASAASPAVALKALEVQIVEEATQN

[10] = molecular target: MAGI1_2, Q96QZ7
[11] = molecular target: MAGI2_4, Q86UL8
[12] = molecular target: MAGI2_5, Q86UL8
[13] = molecular target: MAGI2_6, Q86UL8
[14] = molecular target: T5, MPDZ_5, O75970
T5 sequence (O75970 695-796, limits assumed, looked up): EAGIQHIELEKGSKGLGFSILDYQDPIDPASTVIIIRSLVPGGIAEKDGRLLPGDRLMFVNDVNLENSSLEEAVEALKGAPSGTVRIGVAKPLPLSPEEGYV

[15] = molecular target: T6, NHERF3_4, Q5T2W1
T6 sequence (Q5T2W1 373-468, limits assumed, looked up): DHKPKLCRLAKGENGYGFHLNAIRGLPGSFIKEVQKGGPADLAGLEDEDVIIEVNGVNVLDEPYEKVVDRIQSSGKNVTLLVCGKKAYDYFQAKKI

[16] = molecular target: NHERF4_2, Q86UT5
[17] = molecular target: NOS1, P29475
[18] = molecular target: T7, PDZD2_2, O15018
T7 sequence (O15018 329-429, limits assumed, looked up): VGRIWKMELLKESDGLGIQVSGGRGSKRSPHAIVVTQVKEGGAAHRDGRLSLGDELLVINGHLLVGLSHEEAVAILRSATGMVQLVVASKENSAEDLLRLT

[19] = molecular target: T8, PDZD7_3, Q9H5P4
T8 sequence (Q9H5P4 857-944, limits assumed, looked up): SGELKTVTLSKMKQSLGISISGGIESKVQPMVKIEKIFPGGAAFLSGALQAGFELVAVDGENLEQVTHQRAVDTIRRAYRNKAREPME

[20] = molecular target: T9, PDZRN3_1, Q9UPQ7
T9 sequence (Q9UPQ7 244-349, limits assumed, looked up): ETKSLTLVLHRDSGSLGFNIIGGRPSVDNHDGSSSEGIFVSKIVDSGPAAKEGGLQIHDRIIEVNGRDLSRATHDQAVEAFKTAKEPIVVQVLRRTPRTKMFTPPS

[21] = molecular target: PICK1, Q9NRD5
[22] = molecular target: T10, RADIL, Q96JH8
T10 sequence (Q96JH8 971-1071, limits assumed, looked up): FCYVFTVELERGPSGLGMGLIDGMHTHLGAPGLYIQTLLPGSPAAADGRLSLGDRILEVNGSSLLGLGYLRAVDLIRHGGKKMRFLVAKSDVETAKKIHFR

[23] = molecular target: SCRIB_3, Q14160
[24] = molecular target: T11, SYNJ2BP, P57105
T11 sequence (P57105 8-110, limits assumed, looked up): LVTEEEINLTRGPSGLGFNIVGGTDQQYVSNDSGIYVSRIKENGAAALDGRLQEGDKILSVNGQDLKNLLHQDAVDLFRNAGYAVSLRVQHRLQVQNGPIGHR

[25] = molecular target: TJP2_1, Q9UDY2
[26] = molecular target: T12, TJP3_3, O95049
T12 sequence (O95049 375-456, limits assumed, looked up): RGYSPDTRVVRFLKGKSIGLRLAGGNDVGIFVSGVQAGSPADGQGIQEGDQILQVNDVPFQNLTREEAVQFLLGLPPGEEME

[27] = plain residues with an end cap or a label only (N-terminal biotin on a linker: ttds)
[28] = plain residues with an end cap or a label only (N-terminal biotin on a linker: ahx)
[29] = plain residues with an end cap or a label only (N-terminal biotin on a linker: ado-ado, ttds)

TJP2_1, Q9UDY2, sequence (Q9UDY2 24-128): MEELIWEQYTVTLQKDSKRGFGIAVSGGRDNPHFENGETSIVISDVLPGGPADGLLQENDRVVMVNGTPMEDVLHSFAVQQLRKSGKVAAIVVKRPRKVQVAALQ
NOS1, P29475, sequence (P29475 9-101): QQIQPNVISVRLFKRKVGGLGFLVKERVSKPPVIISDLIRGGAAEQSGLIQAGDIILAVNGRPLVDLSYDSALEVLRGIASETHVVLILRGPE
MAGI2_4, Q86UL8, sequence (Q86UL8 772-865): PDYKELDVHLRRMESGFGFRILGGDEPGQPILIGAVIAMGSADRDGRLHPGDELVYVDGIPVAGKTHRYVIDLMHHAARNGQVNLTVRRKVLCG
NHERF4_2, Q86UT5, sequence (Q86UT5 220-308): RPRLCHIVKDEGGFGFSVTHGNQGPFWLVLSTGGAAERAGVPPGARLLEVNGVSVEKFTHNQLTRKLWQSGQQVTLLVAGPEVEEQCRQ
MAGI2_6, Q86UL8, sequence (Q86UL8 1141-1229): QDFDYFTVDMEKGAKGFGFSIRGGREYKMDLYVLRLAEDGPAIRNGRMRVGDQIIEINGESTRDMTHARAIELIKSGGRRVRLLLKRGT
LNX1_1, Q8TBB1, sequence (Q8TBB1 261-371): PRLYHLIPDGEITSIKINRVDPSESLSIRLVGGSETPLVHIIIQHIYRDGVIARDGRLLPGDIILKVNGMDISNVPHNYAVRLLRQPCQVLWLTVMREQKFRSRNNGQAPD
LNX1_3, Q8TBB1, sequence (Q8TBB1 500-596): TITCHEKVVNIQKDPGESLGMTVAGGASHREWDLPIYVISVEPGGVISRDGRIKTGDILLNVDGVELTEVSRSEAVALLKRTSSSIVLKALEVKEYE
PICK1, Q9NRD5, sequence (Q9NRD5 17-115): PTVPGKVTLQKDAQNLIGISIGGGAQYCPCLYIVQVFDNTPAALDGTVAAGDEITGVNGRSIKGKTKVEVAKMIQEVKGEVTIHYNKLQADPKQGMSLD
IL16_3, Q14005, sequence (Q14005 1107-1207): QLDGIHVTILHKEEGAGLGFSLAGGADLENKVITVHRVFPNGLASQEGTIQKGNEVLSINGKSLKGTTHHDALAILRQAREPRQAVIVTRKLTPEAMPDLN
GORASP1, Q9BQQ3, sequence (Q9BQQ3 1-208): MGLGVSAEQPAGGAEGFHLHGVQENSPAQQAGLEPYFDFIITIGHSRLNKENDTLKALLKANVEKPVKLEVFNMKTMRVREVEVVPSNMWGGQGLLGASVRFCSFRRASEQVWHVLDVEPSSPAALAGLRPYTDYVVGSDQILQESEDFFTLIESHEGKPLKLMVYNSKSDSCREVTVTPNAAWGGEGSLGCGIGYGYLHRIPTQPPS
MAGI2_5, Q86UL8, sequence (Q86UL8 915-1017): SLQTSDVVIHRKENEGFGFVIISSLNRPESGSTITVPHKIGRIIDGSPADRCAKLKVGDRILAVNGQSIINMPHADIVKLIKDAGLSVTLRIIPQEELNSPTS
SCRIB_3, Q14160, sequence (Q14160 999-1103): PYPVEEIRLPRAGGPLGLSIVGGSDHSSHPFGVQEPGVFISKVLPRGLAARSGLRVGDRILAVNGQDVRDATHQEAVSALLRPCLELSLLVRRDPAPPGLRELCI
MAGI1_2, Q96QZ7, sequence (Q96QZ7 456-580): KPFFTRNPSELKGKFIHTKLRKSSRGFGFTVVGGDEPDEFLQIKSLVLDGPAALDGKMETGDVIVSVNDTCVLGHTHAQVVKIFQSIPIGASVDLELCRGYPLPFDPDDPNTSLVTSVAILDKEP

PPRQRSETQV [HPV82-E6, Q9IR59]
pKd [1, 27]: below the threshold
pKd [2, 27]: 3.63
pKd [3, 27]: below the threshold
pKd [4, 27]: below the threshold
pKd [5, 27]: below the threshold
pKd [6, 27]: below the threshold
pKd [7, 27]: below the threshold
pKd [8, 27]: 3.73
pKd [9, 27]: below the threshold
pKd [10, 27]: 5.54
pKd [11, 27]: 4.72
pKd [12, 27]: 4
pKd [13, 27]: 3.46
pKd [14, 27]: below the threshold
pKd [15, 27]: below the threshold
pKd [16, 27]: below the threshold
pKd [17, 27]: 3.88
pKd [18, 27]: below the threshold
pKd [19, 27]: 3.84
pKd [20, 27]: 3.81
pKd [21, 27]: below the threshold
pKd [22, 27]: 3.34
pKd [23, 27]: 4.05
pKd [24, 27]: 4.86
pKd [25, 27]: 3.44
pKd [26, 27]: below the threshold

SKKNELFSNL [NHERF1, O14745]
pKd [1, 28]: below the threshold
pKd [2, 28]: below the threshold
pKd [3, 28]: below the threshold
pKd [4, 28]: below the threshold
pKd [5, 28]: below the threshold
pKd [6, 28]: below the threshold
pKd [7, 28]: below the threshold
pKd [8, 28]: below the threshold
pKd [9, 28]: below the threshold
pKd [10, 28]: below the threshold
pKd [11, 28]: below the threshold
pKd [12, 28]: below the threshold
pKd [13, 28]: below the threshold
pKd [14, 28]: below the threshold
pKd [15, 28]: below the threshold
pKd [16, 28]: below the threshold
pKd [17, 28]: below the threshold
pKd [18, 28]: 4.38
pKd [19, 28]: below the threshold
pKd [20, 28]: below the threshold
pKd [21, 28]: below the threshold
pKd [22, 28]: below the threshold
pKd [23, 28]: below the threshold
pKd [24, 28]: below the threshold
pKd [25, 28]: below the threshold
pKd [26, 28]: below the threshold

SSIDLWETAL [SLC15A5, A6NIM6]
pKd [1, 27]: below the threshold
pKd [2, 27]: 4.85
pKd [3, 27]: 4.02
pKd [4, 27]: below the threshold
pKd [5, 27]: below the threshold
pKd [6, 27]: 3.97
pKd [7, 27]: below the threshold
pKd [8, 27]: below the threshold
pKd [9, 27]: below the threshold
pKd [10, 27]: below the threshold
pKd [11, 27]: below the threshold
pKd [12, 27]: 4.97
pKd [13, 27]: 5.08
pKd [14, 27]: below the threshold
pKd [15, 27]: 4.94
pKd [16, 27]: below the threshold
pKd [17, 27]: 4.36
pKd [18, 27]: 4.11
pKd [19, 27]: 5.56
pKd [20, 27]: 5.87
pKd [21, 27]: below the threshold
pKd [22, 27]: 3.78
pKd [23, 27]: 5.71
pKd [24, 27]: 5.45
pKd [25, 27]: below the threshold
pKd [26, 27]: below the threshold

SNAKAVETDV [KCNA4, P22459]
pKd [1, 29]: below the threshold
pKd [2, 29]: below the threshold
pKd [3, 29]: below the threshold
pKd [4, 29]: below the threshold
pKd [5, 29]: below the threshold
pKd [6, 29]: 3.77
pKd [7, 29]: below the threshold
pKd [8, 29]: 3.51
pKd [9, 29]: below the threshold
pKd [10, 29]: below the threshold
pKd [11, 29]: 3.79
pKd [12, 29]: below the threshold
pKd [13, 29]: 4.35
pKd [14, 29]: below the threshold
pKd [15, 29]: below the threshold
pKd [16, 29]: below the threshold
pKd [17, 29]: 3.48
pKd [18, 29]: 4.32
pKd [19, 29]: below the threshold
pKd [20, 29]: below the threshold
pKd [21, 29]: below the threshold
pKd [22, 29]: below the threshold
pKd [23, 29]: 4.8
pKd [24, 29]: 4.37
pKd [25, 29]: below the threshold
pKd [26, 29]: below the threshold
